Reference: publication PMC10497535, “Identification of the SNARE complex that mediates the fusion of multivesicular bodies with the plasma membrane in exosome secretion” (Journal of Extracellular Vesicles, 2023)

Assays:
[1] = target: T1, recombinant SN-23, mutant of full-length human SNAP-23 (C79A, C80A, C83A, C85A, C87A, C112A) (human, UniProt O00161 1-211, C79A | C80A | C83A | C85A | C87A | C112A); test: pull-down; 2 μM GST-VAMP-7 SNARE motif with 3 μM Syx-4 (1-274) and/or 3 μM SN-23 on glutathione Sepharose 4B, 4°C, 5 h; washed with 20 mM Tris-HCl pH 8.0, 150 mM NaCl, 1% Triton X-100; SDS-PAGE; conditions: both partners purified
T1 construct: SNAP-23, human, full length (residues 1-211) with six cysteines changed to alanine; Cloned into pET28a; source: E. coli BL21 DE3, purified (Nickel-NTA)
T1 sequence (looked up): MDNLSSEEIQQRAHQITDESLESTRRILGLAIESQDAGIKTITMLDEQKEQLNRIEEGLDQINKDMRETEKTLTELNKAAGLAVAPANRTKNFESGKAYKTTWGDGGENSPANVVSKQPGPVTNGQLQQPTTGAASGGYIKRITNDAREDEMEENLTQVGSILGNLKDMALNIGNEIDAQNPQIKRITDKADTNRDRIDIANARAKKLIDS

[2] = target: T2, Syx-4 (residues 1-274, the cytoplasmic fragment) (human, UniProt Q12846 1-274); test: as above; conditions: both partners purified
T2 construct: syntaxin-4, human, cytoplasmic fragment, residues 1-274; Cloned into pET28a; 'purified as previously described'; also called cytoplasmic fragment of Syx-4; source: E. coli BL21 DE3, purified (Nickel-NTA)

binding result [1]: binds | binding result [2]: binds
B1: GST-tagged VAMP-7 SNARE motif (residues 125-185) (domain or fragment, human, UniProt P51809 125-185, looked up)
chain: KVMETQAQVDELKGIMVRNIDLVAQRGERLELLIDKTENLVDSSVTFKTTSRNLARAMCMK
notes: pGEX-6p-1; PreScission-cleavable GST tag, not cleaved for the pull-down; also called GST-VAMP-7 SNARE motif; source: E. coli BL21 DE3, purified (glutathione Sepharose 4B, eluted with glutathione); not shown: GST, N-terminal, kept
